Measured values taken from US20100003195A1.

Columns and labels:
[1] = target: KDR on KDR-transfected 293H cells (human) (UniProt P35968); test: scrambled-peptide microballoons (Example 37) on KDR-transfected 293H cells, microscopy
[2] = target: KDR on KDR-transfected 293H cells (human) (UniProt P35968); test: scrambled-peptide microbubbles (Example 35) on KDR-transfected 293H cells, microscopy
[3] = target: KDR on KDR-transfected 293H cells (human) (UniProt P35968); test: scrambled-peptide microbubbles (Example 36) on KDR-transfected 293H cells, microscopy

Question: Which results are given for “microvesicles conjugated to a scrambled control peptide”?
Answer: coverage % of the imaged surface [1]: 0.1%; coverage % of the imaged surface [2]: 2.1%; coverage % of the imaged surface [3]: 2.2%
